T1: 重组TEM8蛋白 (recombinant TEM8 protein, 北京义翘神州生物技术有限公司) (UniProt Q9H6X2 33-321, limits assumed)
T1 construct: Bought recombinant protein coated on an ELISA plate; also called TEM8重组蛋白; 肿瘤内皮标记物8
T1 sequence (looked up): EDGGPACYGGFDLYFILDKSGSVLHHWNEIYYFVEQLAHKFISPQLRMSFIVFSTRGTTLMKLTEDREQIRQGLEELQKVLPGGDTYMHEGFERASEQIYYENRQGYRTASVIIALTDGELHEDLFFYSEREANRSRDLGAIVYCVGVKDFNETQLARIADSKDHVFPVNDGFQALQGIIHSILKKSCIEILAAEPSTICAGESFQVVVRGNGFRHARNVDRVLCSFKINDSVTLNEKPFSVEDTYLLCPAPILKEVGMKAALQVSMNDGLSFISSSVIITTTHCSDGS


Legend:
[1] = target: T1, 重组TEM8蛋白 (recombinant TEM8 protein, …); test: ELISA, TEM8 protein coated, antibody in 1:4 serial dilution, anti-human IgG-HRP
[2] = target: T2, TEM8 on TEM8稳定过表达细胞株 (CHO-K1 cells stably transfected with the full-length TEM8 gene) (human, UniProt Q9H6X2 33-564); test: cell-based binding on plated TEM8-overexpressing cells, anti-human-Eu, time-resolved fluorescence
T2 construct: also called TEM8过表达细胞; 细胞膜TEM8

| EC50 [1] | EC50 [2] | Binder |
| --- | --- | --- |
| 0.0324 µg/mL | 0.133 µg/mL | NMT802 (antibody, human IgG1, kappa, V domains shown, also called 单克隆抗体NMT802; NMT802抗体) VH: EVTLKESGPALVKPTQTLTLTCTFSGFSLSTSGMGVGWIRQPPGKALEWLAHIWWDDVKRYYPALKSRLTISKDTSKSQVVLTMTNMDPADTATYYCARIGYDWFPYWGQGTLVTVSS VL: DIQMTQSPSFLSASVGDRVTITCKASQNVGIAVAWYQQKPGKAPKLLIYSASNRYTGVPSRFSGSGSGTDFTLTISYLQSEDFATYYCQQYRSYPLTFGGGTKVEIKR |
| 0.00544 µg/mL | 0.765 µg/mL | NMT803 (antibody, V domains shown, also called 单克隆抗体NMT803) VH: EVTLKESGPALVKPTQTLTLTCTFSGFSLSTSGMGVGWIRQPPGKALEWLAHIWWDDVKQYYPALKSRLTISKDTSKSQVVLTMTNMDPVDTATYYCARIGYDWFPYWGQGTLVTVSS VL: DIQMTQSPSFLSASVGDRVTITCKASQNVGIAVAWYQQKPGKAPKLLIYSASNRYTGVPSRFSGSGSGTDFTLTISCLQSEDFATYYCQQYRFKPLTFGGGTKVEIK |

— CN106478818A (JIANGSU NOVOMAB BIOPHARMACEUTICALS INC, dated 2017)
